The values that follow come from article PMC2794155.

Numbering of substitutions follows the chain as printed. Like-named read-outs stand apart in the source and are kept apart here.

Data set [1] addresses T1, NHP6A (Saccharomyces cerevisiae RKY3032, UniProt P11632 1-93). As to the kind of experiment: EMSA. In general terms: In EMSA bound probe runs differently from free probe, usually more slowly.
The target in data set [2] is T1, NHP6A. As to the kind of experiment: EMSA. The source holds these as a separate data set.
Data set [3] has as its target T2, MSH2;MSH6 (Saccharomyces cerevisiae;Saccharomyces …, UniProt P25847;Q03834 1-964;1-1242, |). As to the kind of experiment: EMSA.
Data set [4] deals with MSH2;MSH6 F337A (Saccharomyces cerevisiae;Saccharomyces …, UniProt P25847;Q03834 1-964;1-1242, |F337A). As to the kind of experiment: EMSA.
Chain of MSH2;MSH6 F337A (P25847 whole entry, chain 1 of 2): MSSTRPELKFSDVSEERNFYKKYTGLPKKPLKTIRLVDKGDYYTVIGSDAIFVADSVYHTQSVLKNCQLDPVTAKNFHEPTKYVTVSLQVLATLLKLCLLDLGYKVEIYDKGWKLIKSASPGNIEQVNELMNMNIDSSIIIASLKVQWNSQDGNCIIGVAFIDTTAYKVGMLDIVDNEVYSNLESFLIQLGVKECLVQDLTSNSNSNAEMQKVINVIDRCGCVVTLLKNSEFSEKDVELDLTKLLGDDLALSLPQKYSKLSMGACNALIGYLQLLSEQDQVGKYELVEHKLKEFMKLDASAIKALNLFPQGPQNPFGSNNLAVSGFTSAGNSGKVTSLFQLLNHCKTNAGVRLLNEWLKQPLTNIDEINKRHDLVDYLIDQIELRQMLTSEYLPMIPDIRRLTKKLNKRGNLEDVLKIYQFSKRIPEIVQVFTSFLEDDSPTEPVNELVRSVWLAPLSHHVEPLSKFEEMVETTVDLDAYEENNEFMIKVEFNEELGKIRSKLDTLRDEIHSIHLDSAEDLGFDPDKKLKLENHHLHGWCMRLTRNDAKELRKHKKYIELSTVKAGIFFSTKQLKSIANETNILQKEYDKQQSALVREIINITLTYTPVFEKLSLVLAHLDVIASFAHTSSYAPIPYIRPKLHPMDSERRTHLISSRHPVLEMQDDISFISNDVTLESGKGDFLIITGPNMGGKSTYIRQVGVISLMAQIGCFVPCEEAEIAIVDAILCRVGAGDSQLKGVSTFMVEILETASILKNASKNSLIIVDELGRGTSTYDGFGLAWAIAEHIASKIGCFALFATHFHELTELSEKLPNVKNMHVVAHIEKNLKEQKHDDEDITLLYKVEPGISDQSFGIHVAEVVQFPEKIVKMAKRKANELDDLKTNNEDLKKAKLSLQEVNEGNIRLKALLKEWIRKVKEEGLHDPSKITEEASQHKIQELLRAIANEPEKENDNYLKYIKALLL
Chain of MSH2;MSH6 F337A (Q03834 whole entry F337A, chain 2 of 2): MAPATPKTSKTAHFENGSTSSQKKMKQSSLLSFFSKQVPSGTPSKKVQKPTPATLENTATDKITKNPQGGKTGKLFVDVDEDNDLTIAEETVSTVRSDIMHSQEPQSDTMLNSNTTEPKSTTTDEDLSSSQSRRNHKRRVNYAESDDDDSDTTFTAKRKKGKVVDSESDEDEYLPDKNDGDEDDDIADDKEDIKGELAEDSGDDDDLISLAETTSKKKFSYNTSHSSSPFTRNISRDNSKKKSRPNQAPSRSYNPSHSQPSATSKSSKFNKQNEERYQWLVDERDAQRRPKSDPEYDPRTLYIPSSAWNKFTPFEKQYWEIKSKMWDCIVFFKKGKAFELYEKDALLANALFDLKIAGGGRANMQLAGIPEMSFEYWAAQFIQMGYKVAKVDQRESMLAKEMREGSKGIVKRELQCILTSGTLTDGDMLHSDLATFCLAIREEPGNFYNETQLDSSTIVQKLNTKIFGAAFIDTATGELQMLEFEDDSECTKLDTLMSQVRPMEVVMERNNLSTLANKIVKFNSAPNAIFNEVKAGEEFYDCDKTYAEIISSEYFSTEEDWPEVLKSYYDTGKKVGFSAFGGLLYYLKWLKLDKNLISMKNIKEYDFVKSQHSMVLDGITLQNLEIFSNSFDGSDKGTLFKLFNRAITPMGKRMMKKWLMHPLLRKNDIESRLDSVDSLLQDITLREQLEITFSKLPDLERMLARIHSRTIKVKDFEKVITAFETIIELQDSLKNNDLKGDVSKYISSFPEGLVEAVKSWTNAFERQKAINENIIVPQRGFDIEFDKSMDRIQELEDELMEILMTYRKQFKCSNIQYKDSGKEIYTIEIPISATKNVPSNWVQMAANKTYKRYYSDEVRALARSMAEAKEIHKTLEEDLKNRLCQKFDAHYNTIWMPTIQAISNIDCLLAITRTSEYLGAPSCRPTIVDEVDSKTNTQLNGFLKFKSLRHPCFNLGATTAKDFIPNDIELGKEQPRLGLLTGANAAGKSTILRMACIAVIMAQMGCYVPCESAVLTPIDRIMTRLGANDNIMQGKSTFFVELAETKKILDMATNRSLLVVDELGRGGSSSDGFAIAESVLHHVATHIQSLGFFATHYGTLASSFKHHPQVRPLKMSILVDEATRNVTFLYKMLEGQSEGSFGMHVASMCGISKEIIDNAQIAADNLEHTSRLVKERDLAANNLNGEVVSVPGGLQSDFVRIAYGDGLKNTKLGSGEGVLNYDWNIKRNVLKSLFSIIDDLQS
Data set [5] concerns the target NHP6A;MSH2;MSH6 (Saccharomyces cerevisiae …, UniProt P11632;P25847;Q03834 1-93;1-964;1-1242, ||). As to the kind of experiment: EMSA supershift.
Data set [6] addresses T2, MSH2;MSH6. As to the kind of experiment: EMSA. This is another data set of the same source.

T1 sequence (P11632 whole entry): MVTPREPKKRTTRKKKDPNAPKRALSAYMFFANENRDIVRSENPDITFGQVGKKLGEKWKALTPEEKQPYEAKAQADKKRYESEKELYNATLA
T2 sequence (P25847 whole entry, chain 1 of 2): as the sequence (P25847 whole entry, chain 1 of 2) above
T2 sequence (Q03834 whole entry, chain 2 of 2): as the sequence (Q03834 whole entry F337A, chain 2 of 2) above, with A337F counted along it
Chain of NHP6A;MSH2;MSH6 (P11632 whole entry, chain 1 of 3): as the sequence (P11632 whole entry) above
Chain of NHP6A;MSH2;MSH6 (P25847 whole entry, chain 2 of 3): as the sequence (P25847 whole entry, chain 1 of 2) above
Chain of NHP6A;MSH2;MSH6 (Q03834 whole entry, chain 3 of 3): as the sequence (Q03834 whole entry F337A, chain 2 of 2) above, with A337F counted along it

B1: 37-mer G:C homoduplex (A/T in figures) (dsDNA)
DNA 1: ATTTCCTTCAGCAGATAGGAACCATACTGATTCACAT
DNA 2: ATGTGAATCAGTATGGTTCCTATCTGCTGAAGGAAAT
Regarding B1, the binding result in data set [1] is “binds”.

B2: 37-mer G:T heteroduplex (dsDNA)
DNA 1: B1 DNA 1
DNA 2: B1 DNA 2 with C19T
As for B2, in data set [1], the binding result was “binds”.

B3: 50-mer T:A homoduplex (dsDNA)
DNA 1: CTCATTCAGCATAACTTGATTTCTTTCAGCAGATAGAAACCATACTGATT
DNA 2: AATCAGTATGGTTTCTATCTGCTGAAAGAAATCAAGTTATGCTGAATGAG
For the molecule B3, the results for the binding result in data set [2], in data set [3] and in data set [4] were “binds”, “binds” and “no binding”, respectively.

B4: 50-mer T:G heteroduplex (dsDNA)
DNA 1: B3 DNA 1
DNA 2: B3 DNA 2 with A27G
As for B4, the binding result in data set [2], in data set [5] and in data set [6] was “binds” in each case.
